# From patent US20210032299A1 (Eli Lilly, published 2021)
# Starred links: 1 amine or outer side, 2 acyl side, 3 side chain; linkers in the order of their positions; H or OH if unused. Non-standard residues stand in square brackets, D forms with d. Groups on a side chain read outwards from the residue. No end group written: not given here. *: point of attachment. C20 diacid = O=C(O)CCCCCCCCCCCCCCCCCCC(=O)*; γGlu = O=C(O)[C@H](CCC(=O)[*:2])N[*:1]; αMeF = C[C@](N)(Cc1ccccc1)C(=O)O; 4Pal = N[C@@H](Cc1ccncc1)C(=O)O; αMeL = CC(C)C[C@](C)(N)C(=O)O; AEEA = NCCOCCOCC(=O)O; Aib = CC(C)(N)C(=O)O
# How the values were obtained:
# Test in all cases: cell-based or functional assay
# human GLP-1 receptor = human GLP-1 receptor (human, UniProt P43220 24-463)
# [1] = biological target: T1, human glucose-dependent insulinotropic peptide receptor (human, UniProt P48546 22-466)
# T1 sequence (looked up): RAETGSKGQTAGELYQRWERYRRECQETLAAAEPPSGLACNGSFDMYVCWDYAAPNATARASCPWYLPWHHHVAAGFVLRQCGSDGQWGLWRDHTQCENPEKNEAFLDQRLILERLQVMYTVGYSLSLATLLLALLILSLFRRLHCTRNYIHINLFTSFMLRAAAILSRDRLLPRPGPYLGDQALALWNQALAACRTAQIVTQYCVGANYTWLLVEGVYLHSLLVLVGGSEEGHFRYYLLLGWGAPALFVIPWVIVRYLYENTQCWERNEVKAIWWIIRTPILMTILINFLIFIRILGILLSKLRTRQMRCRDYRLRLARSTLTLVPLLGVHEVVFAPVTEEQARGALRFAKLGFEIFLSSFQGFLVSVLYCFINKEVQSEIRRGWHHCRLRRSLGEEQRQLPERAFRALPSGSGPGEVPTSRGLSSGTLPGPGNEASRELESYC
# human glucagon receptor = human glucagon receptor (human, UniProt P47871 26-477)
# Chain of human glucagon receptor (P47871 26-477): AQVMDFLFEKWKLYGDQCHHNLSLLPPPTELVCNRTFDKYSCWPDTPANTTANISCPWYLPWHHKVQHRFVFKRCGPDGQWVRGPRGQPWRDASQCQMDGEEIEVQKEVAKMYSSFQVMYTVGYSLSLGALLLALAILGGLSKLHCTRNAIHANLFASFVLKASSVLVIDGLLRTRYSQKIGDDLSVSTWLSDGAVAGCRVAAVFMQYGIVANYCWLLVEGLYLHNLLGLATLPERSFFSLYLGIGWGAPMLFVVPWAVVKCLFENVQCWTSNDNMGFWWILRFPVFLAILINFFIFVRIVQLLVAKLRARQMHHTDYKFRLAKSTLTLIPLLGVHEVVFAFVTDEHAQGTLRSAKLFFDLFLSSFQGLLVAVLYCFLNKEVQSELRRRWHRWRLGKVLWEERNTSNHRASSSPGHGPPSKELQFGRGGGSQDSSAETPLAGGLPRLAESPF
Binder,hGLP1R cAMP Rel EC50 (human GLP-1 receptor) [nM],hGIPR cAMP Rel EC50 [1] [nM],hGcgR cAMP Rel EC50 (human glucagon receptor) [nM]
Y[Aib]EGTFISDYSI[αMeL]LDKK([AEEA-AEEA-γGlu-C20 diacid])HQ[Aib]EFVEYLLEQGPSSGAPPPS-NH2 (N-terminus assumed; SMILES CC[C@H](C)[C@H](NC(=O)[C@H](Cc1ccccc1)NC(=O)[C@@H](NC(=O)CNC(=O)[C@H](CCC(=O)O)NC(=O)C(C)(C)NC(=O)[C@@H](N)Cc1ccc(O)cc1)[C@@H](C)O)C(=O)N[C@@H](CO)C(=O)N[C@@H](CC(=O)O)C(=O)N[C@@H](Cc1ccc(O)cc1)C(=O)N[C@@H](CO)C(=O)N[C@H](C(=O)N[C@@](C)(CC(C)C)C(=O)N[C@@H](CC(C)C)C(=O)N[C@@H](CC(=O)O)C(=O)N[C@@H](CCCCN)C(=O)N[C@@H](CCCCNC(=O)COCCOCCNC(=O)COCCOCCNC(=O)CC[C@H](NC(=O)CCCCCCCCCCCCCCCCCCC(=O)O)C(=O)O)C(=O)N[C@@H](Cc1c[nH]cn1)C(=O)N[C@@H](CCC(N)=O)C(=O)NC(C)(C)C(=O)N[C@@H](CCC(=O)O)C(=O)N[C@@H](Cc1ccccc1)C(=O)N[C@H](C(=O)N[C@@H](CCC(=O)O)C(=O)N[C@@H](Cc1ccc(O)cc1)C(=O)N[C@@H](CC(C)C)C(=O)N[C@@H](CC(C)C)C(=O)N[C@@H](CCC(=O)O)C(=O)N[C@@H](CCC(N)=O)C(=O)NCC(=O)N1CCC[C@H]1C(=O)N[C@@H](CO)C(=O)N[C@@H](CO)C(=O)NCC(=O)N[C@@H](C)C(=O)N1CCC[C@H]1C(=O)N1CCC[C@H]1C(=O)N1CCC[C@H]1C(=O)N[C@@H](CO)C(N)=O)C(C)C)[C@@H](C)CC) [Example 63],> 5000,0.0398,1170
Y[Aib]EGT[αMeF]ISDYSI[αMeL]LDKK([AEEA-AEEA-γGlu-C20 diacid])HQ[Aib]EFVE[4Pal]LLATGPSSGAPPPS-NH2 (N-terminus assumed; SMILES CC[C@H](C)[C@H](NC(=O)[C@H](CO)NC(=O)[C@H](Cc1ccc(O)cc1)NC(=O)[C@H](CC(=O)O)NC(=O)[C@H](CO)NC(=O)[C@@H](NC(=O)[C@](C)(Cc1ccccc1)NC(=O)[C@@H](NC(=O)CNC(=O)[C@H](CCC(=O)O)NC(=O)C(C)(C)NC(=O)[C@@H](N)Cc1ccc(O)cc1)[C@@H](C)O)[C@@H](C)CC)C(=O)N[C@@](C)(CC(C)C)C(=O)N[C@@H](CC(C)C)C(=O)N[C@@H](CC(=O)O)C(=O)N[C@@H](CCCCN)C(=O)N[C@@H](CCCCNC(=O)COCCOCCNC(=O)COCCOCCNC(=O)CC[C@H](NC(=O)CCCCCCCCCCCCCCCCCCC(=O)O)C(=O)O)C(=O)N[C@@H](Cc1c[nH]cn1)C(=O)N[C@@H](CCC(N)=O)C(=O)NC(C)(C)C(=O)N[C@@H](CCC(=O)O)C(=O)N[C@@H](Cc1ccccc1)C(=O)N[C@H](C(=O)N[C@@H](CCC(=O)O)C(=O)N[C@@H](Cc1ccncc1)C(=O)N[C@@H](CC(C)C)C(=O)N[C@@H](CC(C)C)C(=O)N[C@@H](C)C(=O)N[C@H](C(=O)NCC(=O)N1CCC[C@H]1C(=O)N[C@@H](CO)C(=O)N[C@@H](CO)C(=O)NCC(=O)N[C@@H](C)C(=O)N1CCC[C@H]1C(=O)N1CCC[C@H]1C(=O)N1CCC[C@H]1C(=O)N[C@@H](CO)C(N)=O)[C@@H](C)O)C(C)C) [Example 61],192,0.0167,> 5000
Y[Aib]EGT[αMeF]ISDYSI[αMeL]LDKK([AEEA-AEEA-γGlu-C20 diacid])HQ[Aib]EFVE[4Pal]LLAAGPSSGAPPPS-NH2 (N-terminus assumed; SMILES CC[C@H](C)[C@H](NC(=O)[C@H](CO)NC(=O)[C@H](Cc1ccc(O)cc1)NC(=O)[C@H](CC(=O)O)NC(=O)[C@H](CO)NC(=O)[C@@H](NC(=O)[C@](C)(Cc1ccccc1)NC(=O)[C@@H](NC(=O)CNC(=O)[C@H](CCC(=O)O)NC(=O)C(C)(C)NC(=O)[C@@H](N)Cc1ccc(O)cc1)[C@@H](C)O)[C@@H](C)CC)C(=O)N[C@@](C)(CC(C)C)C(=O)N[C@@H](CC(C)C)C(=O)N[C@@H](CC(=O)O)C(=O)N[C@@H](CCCCN)C(=O)N[C@@H](CCCCNC(=O)COCCOCCNC(=O)COCCOCCNC(=O)CC[C@H](NC(=O)CCCCCCCCCCCCCCCCCCC(=O)O)C(=O)O)C(=O)N[C@@H](Cc1c[nH]cn1)C(=O)N[C@@H](CCC(N)=O)C(=O)NC(C)(C)C(=O)N[C@@H](CCC(=O)O)C(=O)N[C@@H](Cc1ccccc1)C(=O)N[C@H](C(=O)N[C@@H](CCC(=O)O)C(=O)N[C@@H](Cc1ccncc1)C(=O)N[C@@H](CC(C)C)C(=O)N[C@@H](CC(C)C)C(=O)N[C@@H](C)C(=O)N[C@@H](C)C(=O)NCC(=O)N1CCC[C@H]1C(=O)N[C@@H](CO)C(=O)N[C@@H](CO)C(=O)NCC(=O)N[C@@H](C)C(=O)N1CCC[C@H]1C(=O)N1CCC[C@H]1C(=O)N1CCC[C@H]1C(=O)N[C@@H](CO)C(N)=O)C(C)C) [Example 62],58.2,0.0116,> 5000
Y[Aib]EGTFISDYSI[αMeL]LDKK([AEEA-AEEA-γGlu-C20 diacid])HQ[Aib]EFVEYLLETGPSSGAPPPS-NH2 (N-terminus assumed; SMILES CC[C@H](C)[C@H](NC(=O)[C@H](Cc1ccccc1)NC(=O)[C@@H](NC(=O)CNC(=O)[C@H](CCC(=O)O)NC(=O)C(C)(C)NC(=O)[C@@H](N)Cc1ccc(O)cc1)[C@@H](C)O)C(=O)N[C@@H](CO)C(=O)N[C@@H](CC(=O)O)C(=O)N[C@@H](Cc1ccc(O)cc1)C(=O)N[C@@H](CO)C(=O)N[C@H](C(=O)N[C@@](C)(CC(C)C)C(=O)N[C@@H](CC(C)C)C(=O)N[C@@H](CC(=O)O)C(=O)N[C@@H](CCCCN)C(=O)N[C@@H](CCCCNC(=O)COCCOCCNC(=O)COCCOCCNC(=O)CC[C@H](NC(=O)CCCCCCCCCCCCCCCCCCC(=O)O)C(=O)O)C(=O)N[C@@H](Cc1c[nH]cn1)C(=O)N[C@@H](CCC(N)=O)C(=O)NC(C)(C)C(=O)N[C@@H](CCC(=O)O)C(=O)N[C@@H](Cc1ccccc1)C(=O)N[C@H](C(=O)N[C@@H](CCC(=O)O)C(=O)N[C@@H](Cc1ccc(O)cc1)C(=O)N[C@@H](CC(C)C)C(=O)N[C@@H](CC(C)C)C(=O)N[C@@H](CCC(=O)O)C(=O)N[C@H](C(=O)NCC(=O)N1CCC[C@H]1C(=O)N[C@@H](CO)C(=O)N[C@@H](CO)C(=O)NCC(=O)N[C@@H](C)C(=O)N1CCC[C@H]1C(=O)N1CCC[C@H]1C(=O)N1CCC[C@H]1C(=O)N[C@@H](CO)C(N)=O)[C@@H](C)O)C(C)C)[C@@H](C)CC) [Example 64],> 5000,0.0448,3070
